Data reported in patent US20250059297A1.

Key:
[1] = target: human TROP2 (hTROP2) on cells (human); assay: cell-based or functional assay
[2] = target: human TROP2 (hTROP2) on cells (human); assay: flow cytometry, NCI-N87 cells (express HER2 and TROP2)
[3] = target: human TROP2 (hTROP2) on cells (human); assay: flow cytometry, NCI-H292 cells (express HER2 and TROP2)

human TROP2 (hTROP2) on cells (human), sequence (P09758 whole entry): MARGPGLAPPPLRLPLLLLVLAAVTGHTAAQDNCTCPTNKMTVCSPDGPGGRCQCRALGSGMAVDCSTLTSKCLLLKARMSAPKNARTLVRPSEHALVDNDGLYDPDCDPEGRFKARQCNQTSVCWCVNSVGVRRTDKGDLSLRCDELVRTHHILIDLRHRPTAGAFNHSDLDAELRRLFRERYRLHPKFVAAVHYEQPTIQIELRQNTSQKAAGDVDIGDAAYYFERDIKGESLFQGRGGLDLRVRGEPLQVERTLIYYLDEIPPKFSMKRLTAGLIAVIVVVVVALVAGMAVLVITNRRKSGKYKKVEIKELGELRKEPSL

| endocytosis, direct detection: MFI [1] | endocytosis, direct detection: Percentage of Positive Population [1] [%] | endocytosis, indirect detection: MFI [1] | endocytosis, indirect detection: Percentage of Positive Population [1] [%] | endocytosis: MFI [1] | endocytosis: Percentage of Positive (%) [1] [%] | flow cytometry test result (%) [2] [%] | flow cytometry test result (%) [3] [%] | Binder |
| --- | --- | --- | --- | --- | --- | --- | --- | --- |
| 16600 | 70.1 | 16100 | 72.2 | 23000 | 51.2 | 98.7 | 97.4 | Sacituzumab govitecan antibody analog (antibody, INN chains, looked up, V domains shown) VH: QVQLQQSGSELKKPGASVKVSCKASGYTFTNYGMNWVKQAPGQGLKWMGWINTYTGEPTYTDDFKGRFAFSLDTSVSTAYLQISSLKADDTAVYFCARGGFGSSYWYFDVWGQGSLVTVSS VL: DIQLTQSPSSLSASVGDRVSITCKASQDVSIAVAWYQQKPGKAPKLLIYSASYRYTGVPDRFSGSGSGTDFTLTISSLQPEDFAVYYCQQHYITPLTFGAGTKVEIKR |
|  |  |  |  | 21800 | 43.9 |  |  | DS-1062 antibody analog (antibody, INN chains, looked up, V domains shown) VH: QVQLVQSGAEVKKPGASVKVSCKASGYTFTTAGMQWVRQAPGQGLEWMGWINTHSGVPKYAEDFKGRVTISADTSTSTAYLQLSSLKSEDTAVYYCARSGFGSSYWYFDVWGQGTLVTVSS VL: DIQMTQSPSSLSASVGDRVTITCKASQDVSTAVAWYQQKPGKAPKLLIYSASYRYTGVPSRFSGSGSGTDFTLTISSLQPEDFAVYYCQQHYITPLTFGQGTKLEIK |
